This note sets out measurements from patent publication US20150152192A1 (SAMSUNG ELECTRONICS, published 2015).

Assay [1] deals with T1, human Ang2 polypeptide (R&D systems; Accession #O15123; SEQ ID NO: 172) (human, UniProt O15123 19-496).
T1 construct: Bought protein; also called hAng2; human Ang2 protein
T1 sequence: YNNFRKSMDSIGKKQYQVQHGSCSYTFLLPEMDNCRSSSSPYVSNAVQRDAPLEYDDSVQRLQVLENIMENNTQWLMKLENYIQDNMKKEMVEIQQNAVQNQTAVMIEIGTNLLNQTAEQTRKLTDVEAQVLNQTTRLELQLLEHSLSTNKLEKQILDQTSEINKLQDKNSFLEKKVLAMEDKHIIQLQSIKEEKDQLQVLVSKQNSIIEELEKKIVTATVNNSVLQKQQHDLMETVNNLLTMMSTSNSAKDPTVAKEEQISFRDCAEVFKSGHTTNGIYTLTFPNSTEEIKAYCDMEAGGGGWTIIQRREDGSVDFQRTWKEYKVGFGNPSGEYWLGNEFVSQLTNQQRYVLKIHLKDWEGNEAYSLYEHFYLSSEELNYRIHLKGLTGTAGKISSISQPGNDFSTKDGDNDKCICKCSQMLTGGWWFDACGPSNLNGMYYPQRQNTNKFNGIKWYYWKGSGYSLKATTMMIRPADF
The assay is described as follows: ELISA, human Ang2 coated, anti-human Fc-HRP; 50% binding concentration. On the technique in general: ELISA stands for enzyme-linked immunosorbent assay.

In assay [2] the target is T2, human c-Met/Fc fusion protein (R&D Systems) (human, UniProt P08581 25-932).
T2 construct: also called c-Met-Fc (#358-MT/CF, R&D Systems); human c-Met/Fc protein; not shown: Fc part
T2 sequence (P08581 25-932 limits assumed): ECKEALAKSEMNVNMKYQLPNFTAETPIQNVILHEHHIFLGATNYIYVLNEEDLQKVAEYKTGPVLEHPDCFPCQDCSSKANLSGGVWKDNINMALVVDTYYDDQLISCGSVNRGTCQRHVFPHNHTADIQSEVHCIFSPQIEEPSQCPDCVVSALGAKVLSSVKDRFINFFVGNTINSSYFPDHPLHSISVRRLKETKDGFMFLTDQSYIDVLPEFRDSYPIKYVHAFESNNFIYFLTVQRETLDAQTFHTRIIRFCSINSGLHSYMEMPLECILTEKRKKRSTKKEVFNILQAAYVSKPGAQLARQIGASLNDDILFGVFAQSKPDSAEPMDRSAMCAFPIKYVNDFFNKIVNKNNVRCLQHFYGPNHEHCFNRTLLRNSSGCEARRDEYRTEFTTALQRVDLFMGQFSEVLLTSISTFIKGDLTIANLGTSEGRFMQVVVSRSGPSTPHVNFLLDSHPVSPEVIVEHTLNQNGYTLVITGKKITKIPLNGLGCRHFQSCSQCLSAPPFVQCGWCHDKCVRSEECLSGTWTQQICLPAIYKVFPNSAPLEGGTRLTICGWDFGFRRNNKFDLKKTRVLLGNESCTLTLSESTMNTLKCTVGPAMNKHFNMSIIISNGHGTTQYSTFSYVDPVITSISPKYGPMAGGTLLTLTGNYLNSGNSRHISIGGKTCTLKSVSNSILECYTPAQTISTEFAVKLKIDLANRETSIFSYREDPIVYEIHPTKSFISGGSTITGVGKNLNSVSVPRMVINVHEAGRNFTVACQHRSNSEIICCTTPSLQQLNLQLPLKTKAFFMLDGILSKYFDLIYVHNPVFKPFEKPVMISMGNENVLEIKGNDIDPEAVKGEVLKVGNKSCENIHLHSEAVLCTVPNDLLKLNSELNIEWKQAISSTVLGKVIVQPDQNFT
Description: SPR, Biacore T100, bispecific antibody captured by human Fab binder on CM5 chip, c-Met-Fc flowed. As for the experimental part: For this, a human Fab binder (GE Healthcare) was fixed on the surface of CM5 chip (#BR-1005-30, GE) according to manufacturer's manual. […] Hereto, 10 mM Glycine-HCl (pH 1.5) solution was added, to regenerate the surface. To measure the affinity, the above obtained data were fitted using BIAevaluation software (GE Healthcare, Biacore T100 evaluation software).
(Surface plasmon resonance follows binding to a sensor surface in real time, without labels.)

B1: anti-c-Met/anti-Ang2 bispecific antibody (anti-Ang2 4-H10 scFv fused to the C-terminus of anti-c-Met antibody L3-1Y-IgG2) (bispecific antibody)
heavy: EVQLVESGGGLVQPGGSLRLSCAASGFTFTDYYMSWVRQAPGKGLEWLGFIRNKANGYTTEYSASVKGRFTISRDNSKNTLYLQMNSLRAEDTAVYYCARDNWFAYWGQGTLVTVSSASTKGPSVFPLAPCSRSTSESTAALGCLVKDYFPEPVTVSWNSGALTSGVHTFPAVLQSSGLYSLSSVVTVPSSNFGTQTYTCNVDHKPSNTKVDKTVERKCCVECPPCPAPPVAGPSVFLFPPKPKDTLMISRTPEVTCVVVDVSHEDPEVQFNWYVDGVEVHNAKTKPREEQFNSTFRVVSVLTVVHQDWLNGKEYKCKVSNKGLPAPIEKTISKTKGQPREPQVYTLPPSREEMTKNQVSLTCLVKGFYPSDIAVEWESNGQPENNYKTTPPMLDSDGSFFLYSKLTVDKSRWQQGNVFSCSVMHEALHNHYTQKSLSLSPGGGGGSGGGGSEVQLLESGGGLVQPGGSLRLSCAASGFTFSSYDMSWVRLAPGKGLEWVSLISPDSSSIYYADSVKGRFTISRDNSKNTLYLQMNSLRAEDTAVYYCAKDLISFWRGGFDYWGQGTLVTVSSGGGGSGGGGSGSGGSQSVLTQPPSASGTPGQRVTISCSGSSSNIGSNYVNWYQQLPGTAPKLLIYSDSHRPSGVPDRFSGSKSGTSASLAISGLRSEDEADYYCGAWDDSLSGYVFGGGTKLTVLGQAGQHHHHHHGAYPYDVPDYAS
light: DIQMTQSPSSLSASVGDRVTITCKSSQSLLASGNQNNYLAWYQQKPGKAPKMLIIWASTRVSGVPSRFSGSGSGTDFTLTISSLQPEDFATYYCQQSYSRPYTFGQGTKVEIKRTVAAPSVFIFPPSDEQLKSGTASVVCLLNNFYPREAKVQWKVDNALQSGNSQESVTEQDSKDSTYSLSSTLTLSKADYEKHKVYACEVTHQGLSSPVTKSFNRGEC
notes: also called BS ab; BS Ab
By Kd is commonly meant the equilibrium constant for the complex coming apart. Usually koff stands for the first-order rate constant of dissociation. The low end stands for a long-lived complex, the high end for a short-lived complex. The term kon denotes the rate constant with which the complex forms. Higher therefore signals faster complex formation. Consider B1, for which, in assay [1], the dissociation constant (Kd) turned out to be 31 nM. In assay [2], the Kd is 0.09 nM, the off-rate (koff) was 8.2e-05 s⁻¹ and the association rate constant (kon) stood at 850000 M⁻¹ s⁻¹.
